Laboratory results as given in the supplement of paper PMC11780869.

Test system: Bacillus subtilis
Test: cleaved RNA product abundance (RNA/gDNA barcode ratio) relative to median wild-type variant (ratio to wild type); higher = more accumulation of the downstream cleavage product
Method in brief: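 Cleaved product abundance was measured with barcoded reporter mRNAs (truncated aprE or tetM) carrying mutagenized RNase Y cleavage-site windows in the B. subtilis chromosome. Cultures in LB at 37°C grew from OD600 0.0003 to 0.3. Gel-selected cleaved RNA was reverse transcribed and barcode-sequenced with genomic DNA barcodes, and the RNA:gDNA barcode ratio per construct was scaled to the median construct bearing the unmutated site.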

[1] = experiment (reporter, strain, medium): exp 2b: truncated aprE reporter, strain BJT200, cleavage site: cggR-gapA (positions -7 to +36 mutated)
[2] = experiment (reporter, strain, medium): exp 4a: truncated aprE reporter, strain BJT201 with 2% xylose (RNase J1 expressed), cleavage site: cggR-gapA (positions -7 to +36 mutated)
[3] = experiment (reporter, strain, medium): exp 8a: truncated aprE reporter, strain BJT201 with 2% xylose (RNase J1 expressed), cleavage site: glnRA (positions -5 to +31 mutated)
[4] = experiment (reporter, strain, medium): exp 6: tetM reporter, strain 168, cleavage site: cggR-gapA (positions -7 to +36 mutated)

Sequence | cleaved RNA product abundance [2] | cleaved RNA product abundance [3] | further results
ACAGACGAAGGAGCCGCAAAGAAGTTATTAAGGGATGAATATTCCCTCACTATAAATATCTCTCACTTATTTAAA | – | – | cleaved RNA product abundance [1]: 0.121
ACAGACGAAGGAGCCGCAAAGAAGTTATTAAGGGATGAATACTCACTCAATATAAATATCTCTCACTTATTTAAA | 0.0953 | – | –
CGACATGTCCCGCTTCTTTCATTAATACGTTAGCAACTGTTTTGCTATATACATTTACCTTTTAAGAGGAGGAAT | – | 0.97 | –
CGACATGTCCCGCTTCTTTCATTAATCCGTTAGCAAATGTTTTGCTATATACTTTTACCTTTTAAGAGGAGGAAT | – | 1.13 | –
ACAGACGAAGGAGCCGCAAAGAAGTTATTAAGGGATGAATAATCCCTCTATATAAATACCTCTCACTTATTTAAA | 0.407 | – | –
ACAGACGAAGGAGCCGCAAAGAAGTTATTAAGGCATGAATAATCCCTCAATACAAATATCTCTCACTTATTTAAA | 0.058 | – | –
CGACATGTCCCGCTTCTTTCATTAATCCGTTAGCAACTGTTTTTTTATATACATTTACCTTTTAAGAGGAGGAAT | – | 0.718 | –
ACAGACGAAGGAGCCGCAAAGAAGTTATAAAGGGATGAATAATCCCTCAACATAAATATCTCTCACTTATTTAAA | 0.304 | – | –
ACAGACGAAGGAGCCGCACAGAAGTTATTAAGGGATGAATAATCACTCAATATAAATATCTCTCACTTATTTAAA | 0.125 | – | –
ACAGACGAAGGAGCCGCAAAGAAGTTATTAAGGGATGAATAATCCCTCAATATAGATATCTCTCACTTATTTAAA | 0.683 | – | cleaved RNA product abundance [1]: 0.711
ACAGACGAAGGAGCCGCAAAGAAGTCATGAAGGGATGAATAATCCCTCAATATAAATATCTCTCACTTATTTAAA | 0.325 | – | –
CGACATGTCCCGCTTCTTTCATTAATCCGTTAGCAACTGTTTTGCGATATACATTTACGTTTTAAGAGGAGGAAT | – | 0.36 | –
CGACATGTCCCGCTTCTTTCATTATTCCGTTAGCAACTGTTTTGCTATATACACTTACCTTTTAAGAGGAGGAAT | – | 1.07 | –
CGACATGTCCCGCTTCTTTCATTAATCCGTTAGCAACGGTTTTGTTATATACATTTACCTTTTAAGAGGAGGAAT | – | 0.364 | –
ACAGACGAAGGAGCCGCAAAGAAGTTATTAAGTGATGAATACTCCCTCAATATAAATATCTCTCACTTATTTAAA | 0.181 | – | –
ACAGACGAAGGAGCCGCTAAGAAGTTATTAAGGGATGAATAATCCCTCAACATAAATATCTCTCACTTATTTAAA | 0.291 | – | –
ACAGACGAAGGAGCCGCAAAGAAGTTATTAAAGGATGAATAATCCCGCAATATAAATATCTCTCACTTATTTAAA | 0.219 | – | –
ACAGACGAAGGAGCCGCAAATAAGTTATTAAGGGATGAATAATCCCTCAATTTAAATATCTCTCACTTATTTAAA | 0.136 | – | –
ACAGACGAAGGAGCCGCAAAGAAGTTATAAAGGGATGAATAATCCCTCAATATAATTATCTCTCACTTATTTAAA | 0.171 | – | –
ACAGACGAAGGAGCCGCAAAGAAGTTATTAAGGGATGAAAAATCCCTCAATATAAACATCTCTCACTTATTTAAA | 0.772 | – | –
ACAGACGAAGGAGCCGCAAAGAAGTTATTAAGGGTTGAATAATCCCTCAACATAAATATCTCTCACTTATTTAAA | 0.237 | – | –

Sequence | cleaved RNA product abundance [2] | cleaved RNA product abundance [3] | further results
ACAGACGAAGGAGCCGCAAAGAAGTTATTAAGGCATGAATAATCCCACAATATAAATATCTCTCACTTATTTAAA | 0.0597 | – | cleaved RNA product abundance [1]: 0.0968
CGACATGTCCCGCTTCTTTCATTAATCCTTTAGCAACTGTTTTGCTTTATACATTTACCTTTTAAGAGGAGGAAT | – | 0.174 | –
ACAGACGAAGGAGCCGCAAAGAAATTATTAAGGGATGAATAATCCCTGAATATAAATATCTCTCACTTATTTAAA | 0.548 | – | cleaved RNA product abundance [1]: 0.49
CGACATGTCCCGCTTCTTTCATTAATTCGTTAGTAACTGTTTTGCTATATACATTTACCTTTTAAGAGGAGGAAT | – | 0.445 | –
ACAGACGAAGGAGCCGCAAAGAAGTTATTAAGAGATGAATAATACCTCAATTTAAATATCTCTCACTTATTTAAA | 0.0323 | – | –
ACAGACGAAGGAGCCGCAAAGAAGTAATTAAGGGAAGAATAATCCCTCAATATAAATATCTCTCACTTATTTAAA | 0.263 | – | cleaved RNA product abundance [1]: 0.117
ACAGACGAAGGAGCCGCAAATAAGTTATTAAGCGATGAATAATCCCTCAATATAAATATCTCTCACTTATTTAAA | 0.134 | – | –
ACAGACGAAGGAGCCGCAAAGAAGTTATTAAGGGATGAATTATCCCTCAATATAAATACCTCTCACTTATTTAAA | – | – | cleaved RNA product abundance [1]: 0.469
ACAGACGAAGGAGCCGCAAAGAAGTTATTAAGGGATGACTAATACCTCAATATAAATATCTCTCACTTATTTAAA | 0.0872 | – | –
CGACATGTCCCGCTTCTTTCATTAATCCGTTAGCAACTGTTTGGCTATATACATTTACCTTTTAAGAGGAGGAAT | – | 0.493 | –
ACAGACGAAGGAGCCGCAAAGAAGTTATTAAGTGATGAATAATACCTCAATATAAATATCTCTCACTTATTTAAA | 0.0926 | – | cleaved RNA product abundance [1]: 0.109
CGACATGTCCCGCTTCTTTCATTAATCCGTTAGCAAATGTTTTGCTATATACATTTACTTTTTAAGAGGAGGAAT | – | 1.2 | –
ACAGACGAAGGAGCCGCAAAGAAGTTATAAAGGGATGAATAATCCCTCAATATAAATATTTCTCACTTATTTAAA | 0.51 | – | –
ACAGACGAAGGAGCCGCAAAGAAGTTATTAATGGATGAATAATTCCTCAATATAAATATCTCTCACTTATTTAAA | 0.12 | – | cleaved RNA product abundance [1]: 0.0864
ACAGACGAAGGAGCCGCAAAGAAGTTATTAAGCGATCAATAATCCCTCAATATAAATATCTCTCACTTATTTAAA | 0.0886 | – | cleaved RNA product abundance [1]: 0.0893
CGACATGTCCCGCTTCTTTCATTAATCCGTTAGCAACCGTTTTTCTATATACATTTACCTTTTAAGAGGAGGAAT | – | 0.384 | –
ACAGACGAAGGAGCCGCAAACAAGATATTAAGGGATGAATAATCCCTCAATATAAATATCTCTCACTTATTTAAA | 0.827 | – | –
CGACATGTCCCGCTTCTTTCATTAATCCGTTAGCTACTGTTTTGCTATATACATTTATCTTTTAAGAGGAGGAAT | – | 0.798 | –
ACAGACGAAGGAGCCGCAAAGATGTTATTAAGGGATGAATAATCCCTCAATATAAATATCTCTCACTTATTTAAA | 0.996 | – | cleaved RNA product abundance [1]: 0.938; cleaved RNA product abundance [4]: 1.01
CGACATGTCCCGCTTCTTTCATTAATCCGTTAGCAACTGTTTTGCTATATAAATATACCTTTTAAGAGGAGGAAT | – | 1.3 | –
ACAGACGAAGGAGCCGCAAAGAAGTTATTAAGGGACGAATAATCGCTCAATATAAATATCTCTCACTTATTTAAA | 0.0681 | – | –

Sequence | cleaved RNA product abundance [2] | cleaved RNA product abundance [3] | further results
CGACATGTCCCGCTTCTTTCATTAATCCGTTAGCAACTGTTATGCTATATACGTTTACCTTTTAAGAGGAGGAAT | – | 0.232 | –
CGACATGTCCCGCTTCTTTCATTAATCCGTTAGCAACTGTTTTGCTATATACATTTAGCTTTTAAGAGGAGGAAT | – | 1.07 | –
ACAGACGAAGGAGCCGCAAAGAAGTTAATAAGGGATGAAGAATCCCTCAATATAAATATCTCTCACTTATTTAAA | 0.278 | – | –
ACAGACGAAGGAGCCGCAAAGAAGTTATTAAGGGATTAATAATCCCTCAAAATAAATATCTCTCACTTATTTAAA | 0.419 | – | cleaved RNA product abundance [1]: 0.334
CGACATGTCCCGCTTCTTTCATTAATCCCTAAGCAACTGTTTTGCTATATACATTTACCTTTTAAGAGGAGGAAT | – | 0.229 | –
ACAGACGAAGGAGCCGCAAAGAAGTTATTAAGGCAAGAATAATCCCTCAATATAAATATCTCTCACTTATTTAAA | 0.115 | – | cleaved RNA product abundance [1]: 0.104
CGACATGTCCCGCTTCTTTCATTAATCCGTTAGCAACTGTTTTGCTATAAACATTTAACTTTTAAGAGGAGGAAT | – | 0.912 | –
ACAGACGAAGGAGCCGCAAAGAAGTTATTAAGGGACGAATAATCAATCAATATAAATATCTCTCACTTATTTAAA | 0.132 | – | –
ACAGACGAAGGAGCCGCAAACAAGTTATTAAGGAATGAATAATCCCTCAATATAAATATCTCTCACTTATTTAAA | 0.123 | – | cleaved RNA product abundance [1]: 0.115; cleaved RNA product abundance [4]: 0.139
ACAGACGAAGGAGCCGCAAAGATTTTATTAAGGGATGAATAATCCCTCAATATAAATATCTCTCACTTATTTAAA | 0.974 | – | cleaved RNA product abundance [1]: 1.07
ACAGACGAAGGAGCCGCACAGAAGTTATTAAGGAATGAATAATCCCTCAATATAAATATCTCTCACTTATTTAAA | 0.143 | – | –
CGACATGTCCCGCTTCTTTCATTACTCCGTTAGCAACTGTTTTGCTATCTACATTTACCTTTTAAGAGGAGGAAT | – | 0.0823 | –
ACAGACGAAGGAGCCGCTAAGAAGTTATTAAGGGATGAATAATCCCCCAATATAAATATCTCTCACTTATTTAAA | 0.342 | – | –
CGACATGTCCCGCTTCTTTCATTAATCCGTTAGTAACTGTTTTGCTATATACACTTACCTTTTAAGAGGAGGAAT | – | 0.527 | –
CGACATGTCCCGCTTCTTTCATTAATCCGTTCGCAACTGTTTTGCTATAAACATTTACCTTTTAAGAGGAGGAAT | – | 0.122 | –
CGACATGTCCCGCTTCTTTCATTAATCCGTTACCAATTGTTTTGCTATATACATTTACCTTTTAAGAGGAGGAAT | – | 0.16 | –
CGACATGTCCCGCTTCTTTCATTAATCCGTTAGTAACTGTTTTGCTATATACATTTACCATTTAAGAGGAGGAAT | – | 0.33 | –
ACAGACGAAGGAGCCGCAAAGAAGTTATTAAGGCATGAATAATCCCTCAATATTAATATCTCTCACTTATTTAAA | 0.0489 | – | –
CGACATGTCCCGCTTCTTTCATTAATCCTTTAGCAACTGTTTTCCTATATACATTTACCTTTTAAGAGGAGGAAT | – | 0.283 | –
